B1: LINE1-full (parent)
chain: UACGUAGGUGGUUUUCCCCUGAUAGUGCUAAGGGGGCCUGGAAGUUUGGACUGGGCAGAGCUCAACACAGCGUGGCAAAGUGGCUGUGGCUAGACUGCCUCUCUGGAUUCCUCGUCACUCAGCAGGGCAUCUCUGAGAGAAAUGCC

Variants of: B1
Assay: self-cleavage, relative activity (ratio to wild type); higher = more cleavage; in vitro, sequencing; the parent is a self-cleaving ribozyme

Variant | self-cleavage
C128A | 0.7
C128A A141G | 1.01
C128A U134A | 0.3
C128G | 0.98
C128U | 1.39
C128U A138G | 1.44
C128U A140G | 0.89
C128U A140U | 1.36
C128U A141G | 1.37
C128U U130C | 1.35
C128U U143C | 1.26
A129C A136G | 1.61
A129C A138U | 0.57
A129C A140C | 1.29
A129C A140G | 1.67
A129C A140U | 1.75
A129C U130A | 1.47
A129C U143C | 1.74
A129G A136G | 1.7
A129G A138G | 1.44
A129G A140G | 1.47

Variant | self-cleavage
A129G A141G | 1.6
A129G G139A | 1.43
A129G G144A | 1.66
A129G G144U | 1.67
A129G U130A | 1.19
A129G U130C | 1.69
A129G U132C | 1.58
A129G U134A | 0.89
A129G U134C | 1.43
A129G U143A | 1.77
A129G U143C | 1.59
A129U A136G | 1
A129U A136U | 1.42
A129U A138G | 0.93
A129U A138U | 1.47
A129U A140G | 1.53
A129U A142G | 1.43
A129U C131U | 1.78
A129U G139A | 1.53
A129U G144A | 1.51
U130A | 1.42

Variant | self-cleavage
U130A A136G | 1.46
U130A A136U | 1.18
U130A A140G | 1.27
U130A A140U | 1.24
U130A A142C | 0.79
U130A C133U | 2.3
U130C | 1.52
U130C A136U | 1.63
U130C A141C | 2.91
U130C A142C | 1.76
U130C C133A | 1.61
U130C C145U | 1.46
U130C G144A | 1.57
U130C U132C | 1.29
U130C U134C | 1.51
U130C U134G | 0.54
U130C U143A | 1.51
U130C U143C | 1.53
U130G | 1.32
U130G A140G | 1.1
C131A | 1.48

Variant | self-cleavage
C131A A140G | 1.94
C131A A142G | 0.98
C131A U134C | 1.53
C131G | 1.54
C131G A138G | 2.49
C131U | 1.41
C131U A138U | 1.27
C131U A141G | 1.51
C131U U134A | 1.65
U132A | 1.32
U132A A136G | 1.79
U132A A138G | 1.39
U132A A140U | 1.11
U132A A141G | 1.58
U132A A142G | 1.41
U132A U143A | 2
U132A U143C | 1.82
U132C | 1.35
U132C A138G | 1.6
U132C A138U | 1.48
U132C A140G | 1.65

Reference: the RNAGym collection of RNA variant scans (doi:10.7554/elife.90254)
